The target of data set [1] is PfuExo I (recombinant protein encoded by PF2046) (Pyrococcus furiosus) (UniProt Q8TZE9). Put plainly: SEC; analytical gel filtration, SMART system, Superdex 200 3.2/30; 20 µM PfuExo I; 50 mM Tris-HCl pH 8.0, 0.5 mM DTT, 0.1 mM EDTA, 10% glycerol, 0.15 M NaCl; mass estimated against marker proteins.
The target of data set [2] is T1, PfuExo I (Pyrococcus furiosus, UniProt Q8TZE9 1-229).
T1 sequence: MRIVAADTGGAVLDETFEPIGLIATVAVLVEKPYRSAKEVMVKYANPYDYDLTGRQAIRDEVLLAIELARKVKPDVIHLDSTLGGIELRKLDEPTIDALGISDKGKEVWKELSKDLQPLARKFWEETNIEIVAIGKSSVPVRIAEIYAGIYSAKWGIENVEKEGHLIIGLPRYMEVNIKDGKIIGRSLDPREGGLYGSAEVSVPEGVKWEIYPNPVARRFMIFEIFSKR
Put plainly: EMSA; no Mg2+, 0.1 mM EDTA; 1-1000 nM protein; 0.1% glutaraldehyde fixation; one shifted band; 20 mM triethanolamine (pH not stated), 50 mM NaCl, 0.1 mg/ml BSA, 0.1 mM EDTA, 2.5 nM DNA, 20 min at 37 C, then 0.1% glutaraldehyde; 4.5% native PAGE. The settings on record: protein: recombinant, chain copies: 3, label: 32P (5').

Take “PfuExo I (recombinant protein encoded by PF2046) (from UniProt Q8TZE9 1-229) (enzyme)”: in data set [1], the stoichiometry N – broadly, the number of molecules, sites or subunits per partner or assembly – was 3.

B1: 5'-overhang DNA d49F/d27 (dsDNA)
DNA 1: AGCTACCATGCCTGCACGAATTAAGCAATTCGTAATCATGGTCATAGCT
DNA 2: AGCTATGACCATGATTACGAATTGCTT
As for B1, in data set [2] (5' overhang 22 nt), the binding result was “binds”.

B2: 3'-overhang DNA d49F/d22 (dsDNA)
DNA 1: B1 DNA 1
DNA 2: AATTCGTGCAGGCATGGTAGCT
As to B2, the binding result in data set [2] (3' overhang 27 nt) is listed as “binds”.
